Measured values: patent US20190359693A1 (Janssen / Centocor, published 2019)
Like-named read-outs stand apart in the source and are kept apart here.

B1: SD1046 (VHH)
VHH: EVQLVESGGGLVQAGDSLRISCAASGRTLSIYSMGWFRQAPGKEREFVATIGWNSGRTFYPDSLKGRFTISRDNARNTLYLQMNNLRPEDTAVYYCAAAKGPLRLSSQADYWGQGTQVTVSS
B2: SD1036 (VHH)
VHH: EVQLVESGGGLVQAGGSLKLSCAASGRTYAMGWFRQAPGKEREFVAHINALGTRTYYSDSVKGRFTISRDNAKNTEYLEMNNLKPEDTAVYYCTAQGQWRAAPVAVAAEYEFWGQGTQVTVSS
notes: llama sdAb
B3: SD1038 (VHH)
VHH: EVQLVESGGGLVQPGGSLRLSCAVSISIFDIYAMDWYRQAPGKQRDLVATSFRDGSTNYADSVKGRFTISRDNAKNTLYLQMNSLKPEDTAVYLCHVSLYRDPLGVAGGMGVYWGKGALVTVSS
notes: llama sdAb

Key:
Assay in all cases: cell-based or functional assay
[1] = target: HA of H3N2 A/HK/1/68 (D375N, I395V) (influenza A virus)
[2] = target: HA of H3N2 A/HK/1/68 (L331I, E443K) (influenza A virus)
[3] = target: HA of H3N2 A/HK/1/68 (G379R) (influenza A virus)
[4] = target: HA of H3N2 A/HK/1/68 (I395V) (influenza A virus)
[5] = target: HA of H3N2 A/HK/1/68 (N85, E443K) (influenza A virus)
[6] = target: HA of H3N2 A/HK/1/68 (E443K) (influenza A virus)
[7] = target: HA of H3N2 A/HK/1/68 (R201G, L331I, E443K) (influenza A virus)
[8] = target: HA of H3N? A/Env/MPJ193/09 (influenza A virus)
[9] = target: HA of H3N? A/Env/MPJ193/09 (influenza A virus); remark: listed apart in the source

Row | Binder | VNA titer [1] [nM] | VNA titer [2] [nM] | VNA titer [3] [nM] | VNA titer [4] [nM] | VNA titer [5] [nM] | VNA titer [6] [nM] | VNA titer [7] [nM] | VNA titer [8] [nM] | VNA titer [9] [nM]
1 | B1 | > 1000 | 202 | 571 | > 1000 | 202 | 202 | 339 | – | –
2 | B2 | > 1000 | > 1000 | > 1000 | > 1000 | > 1000 | > 1000 | > 1000 | 41 | –
3 | B3 | – | – | – | – | – | – | – | – | 185
